“And” between values parts separate entries of the source, which are not always exact repeats. Equal entries are not always repeated.
Legend:
[1] = target: DrdV restriction-modification enzyme (Deinococcus wulumuqiensis 479); assay: negative stain EM
[2] = target: DrdV restriction-modification enzyme (Deinococcus wulumuqiensis 479); assay: cryo-EM structure
[3] = target: DrdV restriction-modification enzyme (Deinococcus wulumuqiensis 479); assay: SEC
[4] = target: DrdV restriction-modification enzyme (Deinococcus wulumuqiensis 479); assay: cryo-EM structure; remark: listed apart in the source

## DrdV restriction-modification enzyme
[1]
  stoichiometry N: 4
[2]
  stoichiometry N: 3 and 4
[3]
  stoichiometry N: 4
[4]
  stoichiometry N: 2

— PMC8178248
